This is an account of results in PMC9667302.

The target of this test is Bluetongue virus (BTV-1) membrane penetration protein VP5 (bluetongue virus (BTV-1)). In words: cryo-EM structure.

A word on the stoichiometry N: it is the number of molecules, sites or subunits per partner or assembly. Turning to “Bluetongue virus (BTV-1) membrane penetration protein VP5 (natural protein)”, the stoichiometry N was determined as 3.
